# Experimental data from publication PMC3034952 (Enzyme Research, 2011).
# T1: Arabidopsis thaliana pyruvate dehydrogenase-kinase (AtPDK), wild type, bacterial two-hybrid fusion in pBT (Arabidopsis thaliana, UniProt Q9SBJ1 1-366)
# T1 sequence (looked up): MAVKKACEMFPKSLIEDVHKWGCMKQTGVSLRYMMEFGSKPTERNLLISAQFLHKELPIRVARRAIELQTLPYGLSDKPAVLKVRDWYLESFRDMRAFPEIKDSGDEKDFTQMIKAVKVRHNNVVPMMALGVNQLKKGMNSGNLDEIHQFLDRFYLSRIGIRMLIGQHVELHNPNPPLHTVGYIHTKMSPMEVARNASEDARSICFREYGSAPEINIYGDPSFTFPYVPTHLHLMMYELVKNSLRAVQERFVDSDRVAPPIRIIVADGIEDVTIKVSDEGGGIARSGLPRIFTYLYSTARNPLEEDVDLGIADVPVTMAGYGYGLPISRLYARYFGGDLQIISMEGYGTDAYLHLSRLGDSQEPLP
# Substrate: CC(=O)C(=O)O
# Assay: purified protein
# Type: biochemical, Arabidopsis thaliana
# Conditions: 1.8 μM K3Fe(CN)6 as electron acceptor, 30°C, labelled compound
Binder,Km,kcat,kcat/Km
"AtPDC E1 (AtE1; recombinant alpha2beta2 pyruvate dehydrogenase) (Arabidopsis thaliana) (protein, co-expressed in E. coli with GroE; alpha2beta2 heterotetramer, Mr 160,000) chain 1: SAAFSRLISTDTTPITIETSLPFTAHLCDPPSRSVESSSQELLDFFRTMALMRRMEIAADSLYKAKLIRGFCHLYDGQEAVAIGMEAAITKKDAIITAYRDHCIFLGRGGSLHEVFSELMGRQAGCSKGKGGSMHFYKKESSFYGGHGIVGAQVPLGCGIAFAQKYNKEEAVTFALYGDGAANQGQLFEALNISALWDLPAILVCENNHYGMGTAEWRAAKSPSYYKRGDYVPGLKVDGMDAFAVKQACKFAKQHALEKGPIILEMDTYRYHGHSMSDPGSTYRTRDEISGVRQERDPIERIKKLVLSHDLATEKELKDMEKEIRKEVDDAIAKAKDCPMPEPSELFTNVYVKGFGTESFGPDRKEVKASLP chain 2: AAGAKEMTVRDALNSAIDEEMSADPKVFVMGEEVGQYQGAYKITKGLLEKYGPERVYDTPITEAGFTGIGVGAAYAGLKPVVEFMTFNFSMQAIDHIINSAAKSNYMSAGQINVPIVFRGPNGAAAGVGAQHSQCYAAWYASVPGLKVLAPYSAEDARGLLKAAIRDPDPVVFLENELLYGESFPISEEALDSSFCLPIGKAKIEREGKDVTIVTFSKMVGFALKAAEKLAEEGISAEVINLRSIRPLDRATINASVRKTSRLVTVEEGFPQHGVCAEICASVVEESFSYLDAPVERIAGADVPMPYAANLERLALPQIEDIVRASKRACYRSK",45 ± 18 µM,159 ± 14 s⁻¹,3.5e+06 M⁻¹ s⁻¹
"AtPDC E1 (AtE1; recombinant alpha2beta2 pyruvate dehydrogenase) (Arabidopsis thaliana; P52901:G297D) (protein, co-expressed in E. coli with GroE; alpha2beta2 heterotetramer, Mr 160,000) chain 1: SAAFSRLISTDTTPITIETSLPFTAHLCDPPSRSVESSSQELLDFFRTMALMRRMEIAADSLYKAKLIRGFCHLYDGQEAVAIGMEAAITKKDAIITAYRDHCIFLGRGGSLHEVFSELMGRQAGCSKGKGGSMHFYKKESSFYGGHGIVGAQVPLGCGIAFAQKYNKEEAVTFALYGDGAANQGQLFEALNISALWDLPAILVCENNHYGMGTAEWRAAKSPSYYKRGDYVPGLKVDGMDAFAVKQACKFAKQHALEKGPIILEMDTYRYHGHSMSDPDSTYRTRDEISGVRQERDPIERIKKLVLSHDLATEKELKDMEKEIRKEVDDAIAKAKDCPMPEPSELFTNVYVKGFGTESFGPDRKEVKASLP chain 2: AAGAKEMTVRDALNSAIDEEMSADPKVFVMGEEVGQYQGAYKITKGLLEKYGPERVYDTPITEAGFTGIGVGAAYAGLKPVVEFMTFNFSMQAIDHIINSAAKSNYMSAGQINVPIVFRGPNGAAAGVGAQHSQCYAAWYASVPGLKVLAPYSAEDARGLLKAAIRDPDPVVFLENELLYGESFPISEEALDSSFCLPIGKAKIEREGKDVTIVTFSKMVGFALKAAEKLAEEGISAEVINLRSIRPLDRATINASVRKTSRLVTVEEGFPQHGVCAEICASVVEESFSYLDAPVERIAGADVPMPYAANLERLALPQIEDIVRASKRACYRSK",66 ± 24 µM,70 ± 7 s⁻¹,1e+06 M⁻¹ s⁻¹
"AtPDC E1 (AtE1; recombinant alpha2beta2 pyruvate dehydrogenase) (Arabidopsis thaliana; P52901:D295N) (protein, co-expressed in E. coli with GroE; alpha2beta2 heterotetramer, Mr 160,000) chain 1: SAAFSRLISTDTTPITIETSLPFTAHLCDPPSRSVESSSQELLDFFRTMALMRRMEIAADSLYKAKLIRGFCHLYDGQEAVAIGMEAAITKKDAIITAYRDHCIFLGRGGSLHEVFSELMGRQAGCSKGKGGSMHFYKKESSFYGGHGIVGAQVPLGCGIAFAQKYNKEEAVTFALYGDGAANQGQLFEALNISALWDLPAILVCENNHYGMGTAEWRAAKSPSYYKRGDYVPGLKVDGMDAFAVKQACKFAKQHALEKGPIILEMDTYRYHGHSMSNPGSTYRTRDEISGVRQERDPIERIKKLVLSHDLATEKELKDMEKEIRKEVDDAIAKAKDCPMPEPSELFTNVYVKGFGTESFGPDRKEVKASLP chain 2: AAGAKEMTVRDALNSAIDEEMSADPKVFVMGEEVGQYQGAYKITKGLLEKYGPERVYDTPITEAGFTGIGVGAAYAGLKPVVEFMTFNFSMQAIDHIINSAAKSNYMSAGQINVPIVFRGPNGAAAGVGAQHSQCYAAWYASVPGLKVLAPYSAEDARGLLKAAIRDPDPVVFLENELLYGESFPISEEALDSSFCLPIGKAKIEREGKDVTIVTFSKMVGFALKAAEKLAEEGISAEVINLRSIRPLDRATINASVRKTSRLVTVEEGFPQHGVCAEICASVVEESFSYLDAPVERIAGADVPMPYAANLERLALPQIEDIVRASKRACYRSK",257 ± 144 µM,38 ± 10 s⁻¹,100000 M⁻¹ s⁻¹
"AtPDC E1 (AtE1; recombinant alpha2beta2 pyruvate dehydrogenase) (Arabidopsis thaliana; P52901:D295A) (protein, co-expressed in E. coli with GroE; alpha2beta2 heterotetramer, Mr 160,000) chain 1: SAAFSRLISTDTTPITIETSLPFTAHLCDPPSRSVESSSQELLDFFRTMALMRRMEIAADSLYKAKLIRGFCHLYDGQEAVAIGMEAAITKKDAIITAYRDHCIFLGRGGSLHEVFSELMGRQAGCSKGKGGSMHFYKKESSFYGGHGIVGAQVPLGCGIAFAQKYNKEEAVTFALYGDGAANQGQLFEALNISALWDLPAILVCENNHYGMGTAEWRAAKSPSYYKRGDYVPGLKVDGMDAFAVKQACKFAKQHALEKGPIILEMDTYRYHGHSMSAPGSTYRTRDEISGVRQERDPIERIKKLVLSHDLATEKELKDMEKEIRKEVDDAIAKAKDCPMPEPSELFTNVYVKGFGTESFGPDRKEVKASLP chain 2: AAGAKEMTVRDALNSAIDEEMSADPKVFVMGEEVGQYQGAYKITKGLLEKYGPERVYDTPITEAGFTGIGVGAAYAGLKPVVEFMTFNFSMQAIDHIINSAAKSNYMSAGQINVPIVFRGPNGAAAGVGAQHSQCYAAWYASVPGLKVLAPYSAEDARGLLKAAIRDPDPVVFLENELLYGESFPISEEALDSSFCLPIGKAKIEREGKDVTIVTFSKMVGFALKAAEKLAEEGISAEVINLRSIRPLDRATINASVRKTSRLVTVEEGFPQHGVCAEICASVVEESFSYLDAPVERIAGADVPMPYAANLERLALPQIEDIVRASKRACYRSK",178 ± 108 µM,52 ± 12 s⁻¹,300000 M⁻¹ s⁻¹

# Biological target: T1, Arabidopsis thaliana pyruvate …
# Assay: two-hybrid; bacterial two-hybrid (BacterioMatch I, Stratagene): AtPDK in pBT, E1α constructs in pTRG, cotransformed into the E. coli reporter strain; quantified by β-galactosidase activity with o-nitrophenyl-β-D-galactoside
# Conditions: partners not purified
row,β-galactosidase reporter activity (100% of WT),Binder
1,3 μmol min^−1 1.0 A600^−1,"AtPDC E1α, wild type, bacterial two-hybrid fusion in pTRG (enzyme, Arabidopsis thaliana, UniProt P52901 1-389, looked up) MALSRLSSRSNIITRPFSAAFSRLISTDTTPITIETSLPFTAHLCDPPSRSVESSSQELLDFFRTMALMRRMEIAADSLYKAKLIRGFCHLYDGQEAVAIGMEAAITKKDAIITAYRDHCIFLGRGGSLHEVFSELMGRQAGCSKGKGGSMHFYKKESSFYGGHGIVGAQVPLGCGIAFAQKYNKEEAVTFALYGDGAANQGQLFEALNISALWDLPAILVCENNHYGMGTAEWRAAKSPSYYKRGDYVPGLKVDGMDAFAVKQACKFAKQHALEKGPIILEMDTYRYHGHSMSDPGSTYRTRDEISGVRQERDPIERIKKLVLSHDLATEKELKDMEKEIRKEVDDAIAKAKDCPMPEPSELFTNVYVKGFGTESFGPDRKEVKASLP"
